Results: the nanobody polyreactivity screen of Harvey et al. (2022)

Assay: yeast display, Sf9 membrane polyspecificity reagent, FACS + sequencing; frameworks hold sequencing errors
Method in brief: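 Galactose induction of a Saccharomyces cerevisiae BJ5465 synthetic nanobody display library ran 36–48 hours. The cells were then stained for 1 hour at 4 °C with 10% biotinylated, detergent-solubilized Sf9 membrane reagent, pulled down on streptavidin microbeads and FACS-sorted into low and high (top ~1%) gates on expression and reagent-binding fluorescence. Labels for polyreactivity follow the gate of origin.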

Sequence	polyreactivity (PSR sort gate)
QVQLVESGGGLVQAGGSLRLSCAASGFIFRYYAMGWYRQAPGKERELDAAISGSGGSTYYADSVKGRFTISRDNAKNTVYLQMNSLKPEDTAVYYCAKSYGSHRKIRTSFGYWGQGTQVTVSS	high polyreactivity
QVQLVESGGGLVQAGGSLRLSCAATGSNFTGNAMVWYRQAPGKERELVAAISRSGGSTYYADSVKGRYTISRDNAKNTVYLQMISLKPEDTAVYYCAAYRTHGPPRAIRFDYWGQGTQVTVSS	high polyreactivity
QDQLVESVGGLDQAGGSLRLSSAASGRTFWWNAMGWYRQAPGKERELVAVISYSGGSTYYADSVKGRFTISRDNAKNTVYLQMNSLKPEDTAVYYCAAATRVRGFTEYYWGQGTQVTVSS	high polyreactivity
QVQLVESGGGLVQAGGSLRLSCASSGSTFPPYAMGWYRQAPGKERELVAAISYRDTGTYYADSVKGRFTISRDNAKNTVYFQMNSLKPEDTAVYYCAADYHIVYYFLYYYWGQGTQVTVSS	low polyreactivity
QVQHVESGGGLGQAGGILRLSCAGCGRTFVRYAMGWYRQAPGNERELVAAITRSASTYYADSVKGRFTISRDNAKKTVDLQMTSLKPEDTSVYYCNAVWSRYRDLDFWGQGTQVTVSS	high polyreactivity
QVQLVESGGGLVHAGGSLRLSCAASGRIFYYYTKGWYRQEPGKERELVAAISSGGSTNYADSVKGRFTISRDNAKNTVYLQMNSLKPEHTAVYYWARYGGYWSLKYDYWGQGTQVTVSS	high polyreactivity
QVQLVESRRGLVQAGGSLRLSCASSGFTVCWYAMGLYRPAPGTERELVAAISSGGSTNYADSVKGRFTISRDNAKNTVYFQMNSLKPEDTAVYYCARRLWYSDRYSARWQYDYWGQGTQVTVSS	high polyreactivity
QVQLVESGGGLVQAGGSLRLSCSASGFTFFYYAMGWYRQAPGKERELVASISSGGSSTYYADSVKGRFTISRDNAKNTVYLQMNSLKPEDTAVYYFAATSRYRGSWYYYWGQGTQVTVSS	high polyreactivity
QVQLVESGGGLVQAGGSLRLSCAASGRTFAAYTMGWYSQAPGKERELVAAIRRSGSSTYYADSVKGRFTISRDNAKNTVYLQMNSLKPEDTAVYYCARVGRFTGGGYWGQGTQVTVSS	high polyreactivity
QVQLVESGGGLVQAGGILRLSCAASGSIFGSYAMGWYRQAPGKERELVAGITYRGSSTYYADSVKGRFTISRDNAKNTVYLQMNSLKPEDTAVYYCAADPVFDEYDYWGQGTQVTVSS	low polyreactivity
QVQLVESGGGLVQAGGSLRLTCAASGFTFTGNAMGWYRQAPGKEREFVAAISWSGGSTYYADSVKGRFTISRDNAKNTVYLQMNSLKPEDTAVYYCNKYRPYGRIYHLAYGRDYWGQGTQVTVSS	high polyreactivity
QVQLQESGGGLVQAGGSLRPSCAASGSISDGVPMGWYRQAPGEERELVATTVLGATTNYADSVKGRFTISRGNAKNTVYLQMNSLKPEETEVYYCAAPLRYDKGFSYWGQGTQVTVSS	low polyreactivity
QVQLVESGGGLVQAGGSLRLSCAASGFIFSYAMGWYRQAPGKERELVAAISKSGGRTYYADSVKGRFTISRDNAKNTVYLQMNSLIPEDTAVYYCAVRDLHLSNARYNYWGQGSQVTVSS	high polyreactivity
QVQLVESGGGLVQAGGSLRLSCAACGFTIRRYAKGWYRQAPGKERELVAAITTGGSTYYADSVKGRFTISRDNAKNTVYFQMNSLKPEETAVYDCAALYPYKQYRLGYDSWGQGTQVTVSS	high polyreactivity
QVQLVETAGGLVQAGGTLRLSCPASGFTIFDNAMGWSRHPPGQERELVAVITKRGGSTYYADSVKGRFTISRYNAKNTVYLQMNILKPEDTAVYYCAADSRFSNFGVTQVTSDYWGQGTQVTVSS	low polyreactivity
QVQLVESGGGLVQAGGSLRLSCAASGGTFAYYAMGWSRQAPGKERELVAAISSGGSTNYADSVKGRFTISRDNAKNTVNLQMNSLKPEDTAGYFCAADYYGPFYGYTYDYWGQGTQVTVSS	low polyreactivity
QVQLVESGGGLVQAGGSLRLICAASGRTFQYYAMGWYRQARGKERELVAAISWSGGSTYYADSVKGRFTISRDNAKNTVYLQMNSLKAEDNAVYYFAASFRGQIVGYWGQGTQVTVSS	high polyreactivity
QVQLVESGGGLVQAGGSLRLSCAASGFIFRRYAMGWYRQAPGKERELVAAITRSGGSTYYADSVKGRFTISRDTSKNTVYLQMNSLNPEDTAVYYCATKSSGPVLGYGYDYWGQGTQVTVSS	high polyreactivity
QVQLVESGGGLVQAGGSLRLSCAASGSIFGTYAMGWYRQAPGKEREFVADISGIGTSTYYADSVKGRFTISRDNAKNTVYLQMNSLKPEDTAVYYCAACYPPLRGYYYWGQGTQVTVSS	low polyreactivity
QVQLVESGGGLVQAGGSLRLSCAASGFIFDSYAMGCYRQAPGKETELVAAISYSGGNTYYADSVKGRFTISRDNAQITVYLQMNSLKPEDTAFYYCAAEWSDSRWWRLWWYGEDDYWGQGTQVTVSS	high polyreactivity
QVQLVESGGGLVQAGGSLRLSCAASGRTFQSYAMGRYRQGPGKEREFVAVISRSGGDTYYADSVKGRFTISRDNAKNTVYLLMNSLKPEDTAVYYCARGYTWFYADCPEYDYWGQGTQVTVSS	high polyreactivity
QVQLVESGGGLVQAGGSLRLSCAASGSTFSVYAMGWYRQAPGKERELVADITRGGSTYADSVKGRFTISRDNAKNTVYLQMNSLKPEDTAVYYCAREEVTPYPLYWSTREYDYWGQGTQVTVSS	low polyreactivity

Sequence	polyreactivity (PSR sort gate)
QVQLVESGGGLVQAGGSLRLSCAASGIIFGGNVMGWYRQAPGKERELVAAISGGGGRTHYADSVKGRFTISRDNAKNTVYLQMNSLKPEDTAVYYCAVVTRYRYDYWGQGTQVTVSS	high polyreactivity
QVQLVESGGGLVQAGGSLRLSSAASGRTFYSNAMGWYRQAPGKERELVAGISKSGGITYYADSVKGRFTISRDNAKNTVYLQMNRLKPEDTAVYYCAARRRGRFYYWGQGTQVTVSS	high polyreactivity
QVQLVESGGGLVQAGGSLRLSCAASGRTFLWYAKGWYRQAPGKEMELVATITSGDSTIYADSVKGRFTISRDNEKNTVYLQMNSLKPVDTAVYYCAAGYYYYLRDHDYWGQGTQVTVSS	low polyreactivity
QVQLVESGGGLVQAGGSLRLSCAASGRIFPYYAMGWYRQAPGKERELVAAISRSGGRTYYADSVKGRFTISRDNAKNTVYLQMNSLKPEDTAVYYCATPSKALPPHCRAILDYWGQGTQVTVSS	high polyreactivity
QVQLVESGGGLVQAGGSLRLSCAASGSIFYRYAMGWYRQAPGKERELVADISSGGGTSYADSVKGRFTISRDNAKNTVYLQMNSLKPEDTAVYYCAAELYYWTYVRFDYWGQGTQVTVSS	low polyreactivity
QVQLVESGGGLVQAGGSLRFSCAASGRTLVYNGMGWYRPAPGKERELVAAITTDGGDTYYADSVKGRFTISRDNAKNTVYLQMDSLKPEDTAVYYCAADYVALYYWYDYWGQGTQVTVSS	low polyreactivity
QVQLVESGGGLVQAGGSLRLSCAASGSTFYYNGMGWYRQAPGKERELVAAITWTGDSTYYADSVKGRFTISRDNAKNTVYLQMNCLKPEDTAVYYCAAYYRKTGYDYWGQGTQVTVSS	high polyreactivity
QVHIVESGGGLDQAGGSLRLSCAASGSIFYRNAMGWYRQAPGKEREMVAAISSDGSTNYADSVKGRFTISRDNAKNTVYLQMNSLKQEDTAVYFCAAQWTQILDYWGQGTQVNVSS	low polyreactivity
QVQLVESGGGLVQAGGSLRLSCAASGRILAYYAMGWYRQAPGKERELVDAINRSGVRTYYADSVKGRFTISRDYAKNTVYLQMNSLKPEDTAVYYCAAPGQHSWGQGTQVTVSS	high polyreactivity
QVQLVESGGGLVQAGGSLRLSCAASGITIVNYVMGWYRQPPGKERELVAAISIGGGTYYADSVKGRFTISRDNAKNTVYLQMNSLKPEDTAVYYWNASYGGLSFYIGVYDTGYDYWGQGTQVTVSS	low polyreactivity
QVQIVESGGGLVQAGGSLRLSCAASGGTFPAYAMGWYRHAPGKERELVAAISDDDSTYYADSVKGRFTISRDNAKNTVYLQKNSLKPEDTAVYYCNVEYWYYPSVEYSWTAYDYWGQGTQVTVSS	low polyreactivity
QLQLQESGGGLVQAGGSLRLSCAASGSISHYIFMGWYRKAPGKEREFVAGIGYGGTTNYADSVKGRFTISRDNAINNVYLQMNSLKPEDTAMYYCAAREATEFYLYYWGQGTQVTVSS	low polyreactivity
QVQLVESGGGLVQAGGSLRLSCAASGSTLRRYAMGWYRQAPGKERELVAAITSRGTDTYYADSVKGRFTISRDNAKNTVYLQMNSLKPEDTAVYYCANRRGYVYYPGYDYWGQGTQVTVSS	high polyreactivity
QVQLVESGGGLVQAGGSLRLSCAASGFTFPLYAMGWYRQAPGKERELVASISSRGGSTYYADSVKGRFTISRDNAKNTVYLQMNSLKPEDTAVYYCARSTSRYYYWGQGTQVTVSS	high polyreactivity
QVQLVESGGGLVQAGGSLRLSCAASGFTFRYNAMGWYRQAPGKERELVAAITNSGGGTYYADSVKGRFTISRDNAKNTVYLQMNSLKPEDTAVYYCNAKRTNRYVWGKYDYWGQGTQVTVSS	high polyreactivity
QVQLVESAGGLVQAGGSLRLSCDASGRIFTIYAMGWYSQAPGKERELVAAIRSSGDRTYYADSVKGRFTISRDNAKNTVYLQMNSQKPEDTAVYYCAARTRGGYYWGQGTQVTVSS	high polyreactivity
QVQLVESGGGLVQAGGSLRLSCAASGSTFWAYVMGWYRQAPGKERELVAAISKSGVRTHYADSVKGRFTISRDNAKNTVYLQMNSLKPEDNAVYYCAAGGVGNLDDYWGQGTQVTVSS	high polyreactivity
QVQLVESVGGLVQAGGSLRLSCAASGFTFNGYAMGWYRQAPGKERELVAAINISGGSTYYADSVKGRFTISRDNAKNTVYLQMNSLKPEDTAVYYCAARLWGIRYSYRYGYWGQGTQVTVSS	high polyreactivity
QVQLVESGGGLVQAGGSLRLSCAASGRIFGAYTMGWYRQEPGKERELVAAISDGGDTYYADSVKGRFTISRDNAKNTVYFQMNRVKPEDTAVYYCAADAPYYAYYWFPSSFGIYGYWGQGTQVTVSS	low polyreactivity
QVQLVESGGGLVQAGGSLRLSCAASGYIFATYAMGWYRQAPGKERELVAAISWSGGRTYYADSVKGRFTISRDNAKNTVYLQMNSLKPEDTAVYYCNKATSRRVYGYDYWGQGTQVTVSS	high polyreactivity
QVQLVESGGGLVQAGGSLRLSCAASGFTLEFYAMVWYRQAPGKKRELVARITTYGGSTRYADSVKGRFTISRDNAKNTVYLKMNSLKPEDTAVYNCAARGYGYRNVETYGYWGQGTQVTVSS	high polyreactivity
